Source: article PMC6687543 (Structure (London, England : 1993), 2019)

Molecular target: T1, preformed binary complex IL-18/IL-18Rα-ECD ( | human, UniProt Q14116 37-193; Q13478 22-329)
T1 sequence (looked up) 1: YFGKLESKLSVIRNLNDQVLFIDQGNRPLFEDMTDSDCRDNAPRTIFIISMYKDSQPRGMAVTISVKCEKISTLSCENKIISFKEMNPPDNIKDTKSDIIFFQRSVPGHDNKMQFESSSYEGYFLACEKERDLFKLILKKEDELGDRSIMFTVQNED
T1 sequence (looked up) 2: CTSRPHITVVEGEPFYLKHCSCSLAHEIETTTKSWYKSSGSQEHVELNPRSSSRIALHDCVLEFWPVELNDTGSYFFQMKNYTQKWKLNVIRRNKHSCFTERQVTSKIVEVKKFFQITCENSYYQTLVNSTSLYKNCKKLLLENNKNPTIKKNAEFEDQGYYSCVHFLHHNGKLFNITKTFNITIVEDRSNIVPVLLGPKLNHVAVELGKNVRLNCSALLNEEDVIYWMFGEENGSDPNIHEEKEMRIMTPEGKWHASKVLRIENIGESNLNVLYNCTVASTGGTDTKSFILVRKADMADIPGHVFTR
Experiment: SPR

binding result: binds
B1: IL-18Rβ-ECD (extracellular domain of IL-18 receptor beta), wild type (receptor, human, UniProt O95256 20-354, looked up)
chain: FNISGCSTKKLLWTYSTRSEEEFVLFCDLPEPQKSHFCHRNRLSPKQVPEHLPFMGSNDLSDVQWYQQPSNGDPLEDIRKSYPHIIQDKCTLHFLTPGVNNSGSYICRPKMIKSPYDVACCVKMILEVKPQTNASCEYSASHKQDLLLGSTGSISCPSLSCQSDAQSPAVTWYKNGKLLSVERSNRIVVDEVYDYHQGTYVCDYTQSDTVSSWTVRAVVQVRTIVGDTKLKPDILDPVEDTLEVELGKPLTISCKARFGFERVFNPVIKWYIKDSDLEWEVSVPEAKSIKSTLKDEIIERNIILEKVTQRDLRRKFVCFVQNSIGNTTQSVQLKE
modifications: biotin (biotinylated IL-18Rβ-ECD, site not stated)
